Here are results for two molecules from patent US7521540B2, “CYR61 compositions and methods” (Munin Corporation, priority 1996, dated 2009).

For test [1], the target named is T1, αllbβ3 (Homo sapiens, UniProt P05106+P08514).
T1 construct: from tissue; host or cells: outdated human platelets
The test is described as follows: Solid-phase binding assay with purified integrin. The note with it: for Kd: RGD-affinity purified αllbβ3, immobilized protein, read-out: half-saturation of activated αllbβ3 binding. The procedure:
In these experiments, activated and unactivated αllbβ3 were purified from platelet lysates. Activated αllbβ3 was purified by RGD affinity chromatography, as described (Knezevic et al., J. Biol. Chem. 271:16416-16421 [1996]). Briefly, outdated human platelets were isolated by differential centrifugation and solubilized in lysis buffer (10 mM HEPES, pH 7.4, 0.15 M NaCl, containing 1 mM CaCl2, 1 mM MgCl2 100 μM leupeptin, 1 mM phenylmethylsulfonyl fluoride, 10 mM-ethylmaleimide, and 50 mM octylglucoside). The octylglucoside extract was incubated with 1 ml GRGDSPK-coupled Sepharose 4B overnight at 4° C. After washing with 15 ml column buffer (same as lysis buffer except it contained 25 mM octylglucoside), bound αllbβ3 was eluted with 1.7 mM H12 (2 ml) in column buffer. The H12 eluate was applied to a Sephacryl S-300 High Resolution column (1.5×95 cm), and αllbβ3 was eluted with 10 mM HEPES, pH 7.4, 0.15 M NaCl, 1 mM CaCl2, 1 mM MgCl2 and 25 mM octylglucoside.
Unactivated αllbβ3 was isolated by the method of Fitzgerald et al., Anal. Biochem. 151:169-177 (1985), with slight modifications. The flow-through fraction of the GRGDSPK-Sepharose column was applied to a concanavalin A-Sepharose 4B column (1×20 cm). Unbound proteins were washed with 50 ml column buffer, and bound αllbβ3 was then eluted with 100 mM mannose dissolved in column buffer. Fractions containing αllbβ3 were further purified on a Sephacryl S-300 High Resolution column
To perform the solid-phase binding assay, purified αllbβ3 was added to wells coated with either Cyr61 or Fisp12 (mCTGF) in the presence or absence of inhibitors and binding was allowed to proceed for 3 hours at 37° C. Unbound receptor was removed and the wells wee washed twice with HEPES-Tyrode's Buffer. The binding of purified αllbβ3 to Cyr61 or Fisp12/mCTGF immobilized onto microtiter wells was detected with ^125I-mAb15.

Test [2] in a line: Heparin binding assay (salt elution from heparin-Sepharose/agarose). As to conditions: for NaCl concentration of elution from heparin-Sepharose/agarose: increasing salt concentrations.
Test [3] concerns mink lung epithelial cells (Mv1lu, CCL64). The test can be described thus: TGF-β inhibition of DNA synthesis. The note with it: 2 μg/ml, 18 hours. It is filed as cell-based. The procedure:
(§1) DNA synthesis for HUVE cells and NIH 3T3 fibroblasts was measured by thymidine incorporation as described previously (Kireeva et al., [1996]) with minor modifications. HUVE cells were grown in 24-well plates to a subconfluent state, serum-starved for 24 hours and treated with F12K medium containing 10% fetal bovine serum (FBS), 1 μCi/ml [^3H]-thymidine and 10 ng/ml basic Fibroblast Growth Factor (bFGF) (Gibco-BRL, Inc.) with various concentrations of Cyr61 and Fisp12 as indicated. NIH 3T3 fibroblasts were grown to subconlfluence, serum-starved for 48 hours, and treated with Minimal Essential Medium (MEM) containing 0.5% FBS, 1 μCi/ml [^3H]-thymidine, bFGF and various concentrations of Cyr61 or Fisp12. Thymidine incorporation into the trichloroacetic acid-insoluble fraction was determined after 24 hour incubation. Logarithmically grown mink lung epithelial cells (Mv1lu, CCL64) were treated with various concentrations of TGF-β1 (Gibco-BRL) and 2 μg/ml of Cyr61 or Fisp12 for 18 hours; [^3H]-thymidine was then added to 1 μCi/ml for 2 hours. Thymidine incorporation was determnined as described above.

For test [4], the system named is HUVE cells. The test can be described thus: Thymidine incorporation (mitogen potentiation), HUVE cells. Type of test: cell-based, human. The procedure:
Human umbilical vein endothelial cells were plated essentially as described above for 3T3 cells and exposed to a constant amount of murine Cyr61; controls received no Cyr61. Different plates were then exposed to different levels of bFGF, comprising a series of bFGF concentrations ranging from 0-10 ng/ml. […] At 1 ng/ml bFGF, however, HUVE cells increased their thymidine incorporation in the presence of bFGF to 6×10^2 cpm; in the presence of 1 ng/ml bFGF and murine Cyr61, HUVE cells incorporated 1.3×10^3 cpm. At 10 ng/ml bFGF, cells exposed to bFGF incorporated about 1.8×10^3 cpm thymidine; cells receiving 10 ng/ml bFGF and Cyr61 incorporated approximately 6.1×10^3 cpm.
The capacity of murine Cyr61 to potentiate the mitogenic activity of bFGF was verified by a thymidine incorporation assay involving HUVE cells and various combinations of bFGF, Cyr61, and anti-Cyr61 antibodies. Cells were plated and grown as described above. The following combinations of supplements (final plate concentrations noted parenthetically) were then pre-incubated for 1 hour before addition to individual plates: 1) pre-immune antiserum (3%); 2) bFGF (15 ng/ml) and pre-immune antiserum (3%); 3) pre-immune antiserum (3%) and Cyr61 (4 μg/ml); 4) pre-immune antiserum (3%), Cyr61 (4 μg/ml), and bFGF (15 ng/ml); 5) anti-Cyr61 antiserum (3%); 6) anti-Cyr61 antiserum and bFGF (15 ng/ml); 7) anti-Cyr61 antiserum (3%) and Cyr61 (4 μg/ml); and 8) anti-Cyr61 antiserum (3%), Cyr61 (4 μg/ml), and bFGF (15 ng/ml).
as §1
(In general: Dividing cells build labelled thymidine or BrdU into new DNA.)

Test [5] concerns HUVE cells. The test can be described thus: Cell spreading assay. Type of test: cell-based, human. The note with it: dishes coated with 10 μg/ml, 2 hours. On the procedure:
In another embodiment of the invention, the effect of murine Cyr61 on cell morphogenesis was assessed by a cell spreading assay. Polystyrene Petri dishes were coated with 2 ml of a 10 μg/ml solution of Cyr61 or fibronectin in PBS with 0.1% BSA and treated as described above. A third plate was treated with BSA and served as a control. Each dish received 7×10^6 cells and was incubated for 2 hours. Cell spreading was analyzed by microscopy at 100-fold magnification.

The test system of test [6] is Limb mesenchymal cells. The test is described as follows: Limb bud mesenchymal cell attachment. It is filed as cell-based, mouse. The note with it: within 1 hour of plating. On the procedure:
Cyr61, fibronectin (Gibco), or tenascin (Gibco) were diluted in 0.1% protease-free bovine serum albumin (BSA) in PBS with 0.5 mM PMSF, to a final concentrations of 10 or 50 μg/ml. A 10 μl drop/well was placed in a non-tissue culture treated 24-well plate (Corning), and incubated at room temperature for 2 hours. The wells were blocked with 1% BSA in PBS for 1 hour at room temperature, and rinsed with serum-free MEM (Modified Eagle's Medium). Limb mesenchymal cells, suspended at 5×10^5 cell/ml in serum-free MEM, were added at a volume of 400 μl/well, and incubated at 37° C., 5% CO2 for 1 or 3 hours. At each time point, the cell suspension was removed, the wells were rinsed with MEM and the remaining adherent cells were photographed.

B1: Fisp12: Cysteine-rich murine protein, SEQ ID NO:6, mouse ortholog of CTGF (protein, listed as Mus musculus)
chain: MLASVAGPISLALVLLALCTRPATGQDCSAQCQCAAEAAPHCPAGVSLVLDGCGCCRVCAKQLGELCTERDPCDPHKGLFCDFGSPANRKIGVCTAKDGAPCVFGGSVYRSGESFQSSCKYQCTCLDGAVGCVPLCSMDVRLPSPDCPFPRRVKLPGKCCKEWVCDEPKDRTAVGPALAAYRLEDTFGPDPTMMRANCLVQTTEWSACSKTCGMGISTRVTNDNTFCRLEKQSRLCMVRPCEADLEENIKKGKKCIRTPKIAKPVKFELSGCTSVKTYRAKFCGVCTDGRCCTPHRTTTLPVEFKCPDGEIMKKNMMFIKTCACHYNCPGDNDIFESLYYRKMYGDMA
For B1, in test [1], the “binding of activated versus unactivated αllbβ3” value is listed as “greater binding of activated versus unactivated” and the Kd is 15 nM. The “NaCl concentration of elution from heparin-Sepharose/agarose” value in test [2] was 0.2 to 0.6 M NaCl. Moreover, in test [2] (metabolically labeled cell lysates), the “peak elution from heparin agarose” value came out at 0.4 M NaCl. In addition, the “effect on TGF-β inhibition of DNA synthesis” value in test [3] is “enhanced the ability of TGF-β to inhibit DNA synthesis”. Further, the “enhancement of FGF-induced DNA synthesis” value in test [4] (HUVE-cells, bFGF 10 ng/ml) is “enhance DNA synthesis induced by fibroblast growth factor”.

B2: Cyr61: Cysteine-rich ECM signaling protein; murine sequence SEQ ID NO:2, recombinant from Baculovirus-infected Sf9 cells (protein, listed as Mus musculus)
chain: MSSSTFRTLAVAVTLLHLTRLALSTCPAACHCPLEAPKCAPGVGLVRDGCGCCKVCAKQLNEDCSKTQPCDHTKGLECNFGASSTALKGICRAQSEGRPCEYNSRIYQNGESFQPNCKHQCTCIDGAVGCIPLCPQELSLPNLGCPNPRLVKVSGQCCEEWVCDEDSIKDSLDDQDDLLGLDASEVELTRNNELIAIGKGSSLKRLPVFGTEPRVLFNPLHAHGQKCIVQTTSWSQCSKSCGTGISTRVTNDNPECRLVKETRICEVRPCGQPVYSSLKKGKKCSKTKKSPEPVRFTYAGCSSVKKYRPKYCGSCVDGRCCTPLQTRTVKMRFRCEDGEMFSKNVMMIQSCKCNYNCPHPNEASFRLYSLFNDIHKFRD
On to B2, for which the “binding of activated versus unactivated αllbβ3” value in test [1] is “greater binding of activated versus unactivated”. Also, the Kd in test [1] came out at 25 nM. In test [2], the “NaCl concentration of elution from heparin-Sepharose/agarose” value is recorded as 0.8-1.0 M NaCl. Also, the “effect on TGF-β inhibition of DNA synthesis” value in test [3] was “enhanced the ability of TGF-β to inhibit DNA synthesis”. For the same molecule, in test [5], the “HUVE cell spreading” value is recorded as “induces HUVE cell spreading to approximately the same extent as fibronectin”. Also, the “attachment morphology of limb mesenchymal cells” value in test [6] is recorded as “adhered as clusters of rounded cells”. The “thymidine incorporation, baseline” value in test [4] (0-0.1 ng/ml bFGF, presence or absence of Cyr61, 72 hours) is listed as “approximately 4×10^2 cpm”. In addition, the “thymidine incorporation with bFGF and Cyr61” value is 1.3×10^3 cpm in test [4] (1 ng/ml bFGF) and “approximately 6.1×10^3 cpm” in test [4] (10 ng/ml bFGF).
